In general, Kd refers to the constant that tells how readily two partners part at equilibrium.

Series [1] concerns the target T1, hnRNP A1 (UniProt P09651 1-372). Kind of series: SPR imaging; 1:2 biphasic fit, primary Kd; low Rmax 68.35; SPRi (IBIS MX-96): 10 mM HEPES/KOH pH 7.9, 150 mM KCl, 10 mM MgCl2, 0.075% Tween-80; 6.25-400 nM protein over immobilized biotinylated RNA; 20 mg/ml BSA block. The note with it: protein: commercial; label: 3' biotin.
In series [2] the target is T2, SRSF1 (UniProt Q07955 1-248). The series can be described thus: SPR imaging; Kd NA, Rmax 0, maximum 0; SPRi (IBIS MX-96): 10 mM HEPES/KOH pH 7.9, 150 mM KCl, 10 mM MgCl2, 0.075% Tween-80; 6.25-400 nM protein over immobilized biotinylated RNA; 20 mg/ml BSA block. The note with it: protein: recombinant; label: 3' biotin.
T2 sequence (Q07955 whole entry): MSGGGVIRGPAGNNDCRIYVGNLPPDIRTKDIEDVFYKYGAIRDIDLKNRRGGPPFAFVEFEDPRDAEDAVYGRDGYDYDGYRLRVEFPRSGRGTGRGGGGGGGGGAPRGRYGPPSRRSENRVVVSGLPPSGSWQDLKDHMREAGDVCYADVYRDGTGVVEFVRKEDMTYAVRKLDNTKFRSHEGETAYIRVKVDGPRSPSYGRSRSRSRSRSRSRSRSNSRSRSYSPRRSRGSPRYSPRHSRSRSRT
Series [3] deals with T1, hnRNP A1. Kind of series: SPR imaging; 1:2 biphasic fit, primary Kd; SPRi (IBIS MX-96): 10 mM HEPES/KOH pH 7.9, 150 mM KCl, 10 mM MgCl2, 0.075% Tween-80; 6.25-400 nM protein over immobilized biotinylated RNA; 20 mg/ml BSA block. The note with it: protein: commercial; label: 3' biotin.
Series [4] has as its target T2, SRSF1. Kind of series: SPR imaging; SPRi (IBIS MX-96): 10 mM HEPES/KOH pH 7.9, 150 mM KCl, 10 mM MgCl2, 0.075% Tween-80; 6.25-400 nM protein over immobilized biotinylated RNA; 20 mg/ml BSA block. The note with it: protein: recombinant; label: 3' biotin.
In series [5] the target is T1, hnRNP A1. The series can be described thus: SPR imaging; 1:2 biphasic fit, primary Kd; fitted maximum higher than WT (60.5 vs 49.6); SPRi (IBIS MX-96): 10 mM HEPES/KOH pH 7.9, 150 mM KCl, 10 mM MgCl2, 0.075% Tween-80; 6.25-400 nM protein over immobilized biotinylated RNA; 20 mg/ml BSA block. The note with it: protein: commercial; label: 3' biotin.
The target of the next series is TDP-43 (UniProt Q13148 1-414). Kind of series: SPR imaging; pronounced increase vs wt; SPRi (IBIS MX-96): 10 mM HEPES/KOH pH 7.9, 150 mM KCl, 10 mM MgCl2, 0.075% Tween-80; 6.25-400 nM protein over immobilized biotinylated RNA; 20 mg/ml BSA block. The note with it: protein: commercial; label: 3' biotin.
Chain of TDP-43 (Q13148 whole entry): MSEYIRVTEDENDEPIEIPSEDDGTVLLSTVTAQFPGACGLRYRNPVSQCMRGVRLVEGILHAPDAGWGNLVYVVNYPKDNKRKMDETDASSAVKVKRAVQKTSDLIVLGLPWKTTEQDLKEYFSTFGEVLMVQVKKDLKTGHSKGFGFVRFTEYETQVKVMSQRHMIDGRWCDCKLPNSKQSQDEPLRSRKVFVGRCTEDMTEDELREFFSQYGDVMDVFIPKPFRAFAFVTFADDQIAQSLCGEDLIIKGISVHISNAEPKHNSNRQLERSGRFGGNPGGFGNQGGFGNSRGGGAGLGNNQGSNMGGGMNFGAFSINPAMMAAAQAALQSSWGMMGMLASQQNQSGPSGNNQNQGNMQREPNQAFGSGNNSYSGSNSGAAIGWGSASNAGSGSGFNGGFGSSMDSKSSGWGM
Series [6] concerns the target T1, hnRNP A1. Kind of series: SPR imaging; 1:2 biphasic fit, primary Kd; text: increased binding vs WT (maximum 718 vs 131); SPRi (IBIS MX-96): 10 mM HEPES/KOH pH 7.9, 150 mM KCl, 10 mM MgCl2, 0.075% Tween-80; 6.25-400 nM protein over immobilized biotinylated RNA; 20 mg/ml BSA block. The note with it: protein: commercial; label: 3' biotin.
In series [7] the target is T1, hnRNP A1. Kind of series: SPR imaging; 1:2 biphasic fit, primary Kd; low Rmax 58.75; SPRi (IBIS MX-96): 10 mM HEPES/KOH pH 7.9, 150 mM KCl, 10 mM MgCl2, 0.075% Tween-80; 6.25-400 nM protein over immobilized biotinylated RNA; 20 mg/ml BSA block. The note with it: protein: commercial; label: 3' biotin.
Series [8] deals with T1, hnRNP A1. The series can be described thus: SPR imaging; 1:2 biphasic fit, primary Kd; fitted maximum higher than SMN1 (1260 vs 885); SPRi (IBIS MX-96): 10 mM HEPES/KOH pH 7.9, 150 mM KCl, 10 mM MgCl2, 0.075% Tween-80; 6.25-400 nM protein over immobilized biotinylated RNA; 20 mg/ml BSA block. The note with it: protein: commercial; label: 3' biotin.

T1 sequence (P09651 whole entry): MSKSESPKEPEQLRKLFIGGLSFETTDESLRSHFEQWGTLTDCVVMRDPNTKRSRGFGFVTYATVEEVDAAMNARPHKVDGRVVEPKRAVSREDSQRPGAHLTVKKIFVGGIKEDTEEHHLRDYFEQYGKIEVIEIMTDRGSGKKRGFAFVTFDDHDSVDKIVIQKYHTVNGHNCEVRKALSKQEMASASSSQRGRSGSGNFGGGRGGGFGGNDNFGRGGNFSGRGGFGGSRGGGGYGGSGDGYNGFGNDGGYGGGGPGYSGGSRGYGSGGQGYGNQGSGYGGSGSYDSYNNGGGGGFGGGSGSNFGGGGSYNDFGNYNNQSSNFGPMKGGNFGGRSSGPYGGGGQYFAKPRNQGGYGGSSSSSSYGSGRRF

In the case of CAUUCUUUGACUAGC (ssRNA) [MLH1EX17 MUT], the Kd with hnRNP A1 [1] was 118 nM. Also, the binding result in the series with SRSF1 [2] is “no binding”.

Consider UCCCAGUUAGAGGCG (ssRNA) [PTENEX6 MUT], for which the figures for the dissociation constant (Kd) with hnRNP A1 [3] and with SRSF1 [4] were 1450 nM and 161000 nM, respectively.

UGACCUCAAAACAGC (ssRNA) [ATMEX44 MUT]: the dissociation constant (Kd) in the series with hnRNP A1 [5] is 211000 nM; with SRSF1 [4], 10500 nM.

As to AUUUUUGGAAGAGUG (ssRNA) [NF1EX30 WT], the Kd in the series with hnRNP A1 [3] was found to be 632 nM; in the series with SRSF1 [4], 168 nM.

In the case of UGAUGUGUGUGAGUGUGUGUAAC (ssRNA) [ACADM exon 6 5'ss +7A>G 23 nt], in the series with TDP-43, the binding result is given as “binds”.

On to UCCCAGUCAGAGGCG (ssRNA) [PTENEX6 WT], for which the Kd with hnRNP A1 [3] turned out to be 1160 nM; in the series with SRSF1 [4], 5800 nM.

For GGGAGAUAGAAUCAA (ssRNA) [ATP7AEX20 MUT], the Kd with hnRNP A1 [6] was found to be 989 nM; with SRSF1 [4] it was 5090 nM.

As for GGGAGAUGGAAUCAA (ssRNA) [ATP7AEX20 WT], the Kd with hnRNP A1 [3] came out at 886 nM; with SRSF1 [4], 913 nM.

Regarding AGGGUUUCAGACAAA (ssRNA) [SMN1E7C], the Kd in the series with hnRNP A1 [3] came to 733 nM; in the series with SRSF1 [4] it was 302 nM.

Take UGACCUCGAAACAGC (ssRNA) [ATMEX44 WT]: the Kd turned out to be 3890 nM with hnRNP A1 [3] and 60900 nM in the series with SRSF1 [4].

CAUUCUUCGACUAGC (ssRNA) [MLH1EX17 WT] displayed a Kd in the series with hnRNP A1 [7] of 32 nM. The binding result in the series with SRSF1 [2] was “no binding”.

Regarding AUUUUUGUAAGAGUG (ssRNA) [NF1EX30 MUT], the Kd in the series with hnRNP A1 [3] worked out at 1080 nM; with SRSF1 [4] it was 248000 nM.

Consider AGGGUUUUAGACAAA (ssRNA) [SMN2E7T], for which the Kd with hnRNP A1 [8] came out at 1040 nM; with SRSF1 [4] it was 249000 nM.

The record behind these values is PMC7367176, “Grønning Alexander Gulliver Bjørnholt Department of Biochemistry and Molecular Biology, University of Southern Denmark, 5230 Odense M, Denmark”.
